Experimental data taken from PMC3642092.

Target: F-actin (filamentous rabbit skeletal muscle actin) (rabbit), P68135
Assay: co-sedimentation
Conditions: remark: other sources report otherwise

B1: utrophin actin binding domain, utrophin residues 1-261 (UTR261), wildtype, P46939 1-261 (domain or fragment)
chain: MAKYGEHEASPDNGQNEFSDIIKSRSDEHNDVQKKTFTKWINARFSKSGKPPINDMFTDLKDGRKLLDLLEGLTGTSLPKERGSTRVHALNNVNRVLQVLHQNNVELVNIGGTDIVDGNHKLTLGLLWSIILHWQVKDVMKDVMSDLQQTNSEKILLSWVRQTTRPYSQVNVLNFTTSWTDGLAFNAVLHRHKPDLFSWDKVVKMSPIERLEHAFSKAQTYLGIEKLLDPEDVAVQLPDKKSIIMYLTSLFEVLPQQVTID
  Kd: 19.2 µM
  stoichiometry N: 1
